Values joined by “and” are separate entries in the source; they are usually repeats but may differ in a detail not shown here. Equal entries are not always repeated. Where two headings read alike, the source gives them in different places.

For data set [1], the target named is human UDP-glucose dehydrogenase Q458Bpa (human) (UniProt O60701). Nature of the data set: SEC.
The target is the same in data set [2]. In words: cross-linking.
The target is the same in data set [3]. In words: SEC. This is another data set of the same source.
Data set [4] deals with human UDP-glucose dehydrogenase T325D obligate dimeric mutant (human) (UniProt O60701). In words: SEC. (Size exclusion chromatography separates by hydrodynamic size, large species first.)
For data set [5], the target named is human UDP-glucose dehydrogenase Y96Bpa (human) (UniProt O60701). Nature of the data set: SEC.
Data set [6] deals with the molecule itself. In words: SEC.

In data set [1], “human UDP-glucose dehydrogenase Q458Bpa (from UniProt O60701 1-494) (enzyme)” registered a stoichiometry N of 6. For the same molecule, in data set [2], the cross-linking efficiency (holoenzyme) was above 60%; the cross-linking efficiency (with UDP-xylose alone) was 40%; the total crosslinking efficiency (with NAD+ and UDP-glucose) turned out to be 63%. Further, the stoichiometry N in data set [3] was 6.

Regarding “human UDP-glucose dehydrogenase T325D obligate dimeric mutant (from UniProt O60701 1-494) (enzyme)”, the stoichiometry N in data set [4] is 2.

The molecule “human UDP-glucose dehydrogenase Y96Bpa (from UniProt O60701 1-494) (enzyme)” had a stoichiometry N in data set [5] of 2.

B1: human UDP-glucose dehydrogenase, wild type (enzyme, UniProt O60701 1-494, looked up)
chain: MFEIKKICCIGAGYVGGPTCSVIAHMCPEIRVTVVDVNESRINAWNSPTLPIYEPGLKEVVESCRGKNLFFSTNIDDAIKEADLVFISVNTPTKTYGMGKGRAADLKYIEACARRIVQNSNGYKIVTEKSTVPVRAAESIRRIFDANTKPNLNLQVLSNPEFLAEGTAIKDLKNPDRVLIGGDETPEGQRAVQALCAVYEHWVPREKILTTNTWSSELSKLAANAFLAQRISSINSISALCEATGADVEEVATAIGMDQRIGNKFLKASVGFGGSCFQKDVLNLVYLCEALNLPEVARYWQQVIDMNDYQRRRFASRIIDSLFNTVTDKKIAILGFAFKKDTGDTRESSSIYISKYLMDEGAHLHIYDPKVPREQIVVDLSHPGVSEDDQVSRLVTISKDPYEACDGAHAVVICTEWDMFKELDYERIHKKMLKPAFIFDGRRVLDGLHNELQTIGFQIETIGKKVSSKRIPYAPSGEIPKFSLQDPPNKKPKV
With B1, the “stoichiometry N” value in data set [6] was 6 and 2.

Broadly, the stoichiometry N is a count of units in the complex or per binding partner.
